From article PMC10470402 (iScience, 2023)

B1: S. pombe SmF/SmE/SmG subcomplex, HT-tag removed (complex)
chain 1: not shown
chain 2: MSGRVQKVMIPPINFIFKLLQQHTPVSIWLFEQTDIRLQGQIRGFDEFMNIVLDDAVQVDAKNNKRELGRILLKGDNITLIQAI
chain 3: MSKAGAPDLKKYLDRQVFVQLNGSRKVYGVLRGYDIFLNIVLEDSIEEKVDGEKVKIGSVAIRGNSVIMIETLDKMT
B2: S. pombe SmD1/SmD2 subcomplex, HT-tag removed (complex)
chain 1: not shown
chain 2: MADLVDKPRSELSEIELARLEEYEFSAGPLSVLQQAVKNHDQVLINCRNNKKLLARVKAFDRHSNMVLENVKEMWTEKKRTASGKKGKAINKDRFISKMFLRGDGVVLVVRIPSA
B3: S. pombe SmD3 (1-83)/SmB (1-93) subcomplex, HT-tag removed (complex)
chain 1: MSLCIKLLHETQGHIVTMELENGSTYRGKLIEAEDNMNCQMRDISVTARDGRVSHLDQVYIRGSHIRFLIVPDMLRNAPMFKV
chain 2: MGTTKMVSLLNHSLNVTTKDGRTFVGQLLAFDGFMNLVLSDCQEYRHIKKQNVPSNSVYEEKRMLGLVILRGEFIVSLSVQGPPPMDPSMRGS
B4: S. pombe HT-ICln (residues 1-160) (domain or fragment)
chain: MITKIDSLPKDLIRKVENGEKLLPNQEIVYFEEKTVPYKIRSDEESFPLGKLITLLVTSQSFILFDEEQNSGWKIPYETITLHAKQSKDKPYVYVQLEGEAIRPLLDHILKFERSSGTLHEAPSTEDENEFTDDFLELTLYVTDVDSCYQALCTCQSLHP
B5: S. pombe SMN, full length, HT-tag removed (natural protein)
chain: MDQSQKEVWDDSELRNAFETALHEFKKYHSIEAKGGVSDPDSRLDGEKLISAARTEESISKLEEGEQMINQQTETTLEGDTHIQQFADNKGLSDEKPETRAAETHQEFMEVPPPIRGLTYDETYKKLIMSWYYAGYYTGLAEGLAKSEQRKD

Key:
[1] = target: T1, S. pombe Gemin2/HT-SMNp complex (S. pombe, UniProt P0CU08 1-235; Q09808 1-35); assay: pull-down
T1 sequence 1: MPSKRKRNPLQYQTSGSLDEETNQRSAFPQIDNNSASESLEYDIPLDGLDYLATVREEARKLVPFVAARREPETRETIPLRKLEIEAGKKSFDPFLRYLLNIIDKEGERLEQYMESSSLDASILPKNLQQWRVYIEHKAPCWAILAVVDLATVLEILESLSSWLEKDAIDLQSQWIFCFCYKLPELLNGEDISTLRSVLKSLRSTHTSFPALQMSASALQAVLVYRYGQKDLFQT
T1 sequence 2: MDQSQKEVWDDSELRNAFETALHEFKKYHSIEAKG

[2] = target: T1, S. pombe Gemin2/HT-SMNp complex; assay: pull-down; remark: listed apart in the source
SEC = target: the molecule itself; assay: SEC
[3] = target: B4; assay: pull-down
[4] = target: B4; assay: pull-down; remark: listed apart in the source
[5] = target: S. pombe SmD1/HT-SmD2 subcomplex (S. pombe, UniProt O42661 1-117; O14036 1-115); assay: SEC + other: ion-exchange chromatography
[6] = target: B2; assay: SEC
[7] = target: B3; assay: SEC
[8] = target: T2, S. pombe Gemin6/Gemin7/Gemin8 complex, HT-tag removed (S. pombe, UniProt G2TRK8 1-93; G2TRR1 1-91; Q9USY8 1-166); assay: SEC
T2 sequence 1: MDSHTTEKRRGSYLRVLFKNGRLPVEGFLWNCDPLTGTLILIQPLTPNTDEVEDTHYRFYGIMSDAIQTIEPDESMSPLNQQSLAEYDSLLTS
T2 sequence 2: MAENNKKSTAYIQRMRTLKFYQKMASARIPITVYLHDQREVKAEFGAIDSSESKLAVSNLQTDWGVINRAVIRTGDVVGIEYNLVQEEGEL
T2 sequence 3: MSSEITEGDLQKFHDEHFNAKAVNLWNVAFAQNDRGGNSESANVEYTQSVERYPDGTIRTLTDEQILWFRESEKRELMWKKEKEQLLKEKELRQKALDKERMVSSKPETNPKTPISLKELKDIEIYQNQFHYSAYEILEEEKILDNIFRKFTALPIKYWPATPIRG

Chain of S. pombe SmD1/HT-SmD2 subcomplex (O42661 whole entry, one chain of several): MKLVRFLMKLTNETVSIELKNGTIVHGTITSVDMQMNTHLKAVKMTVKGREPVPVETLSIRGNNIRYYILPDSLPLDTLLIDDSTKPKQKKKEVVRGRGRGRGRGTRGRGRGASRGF

Row | Binder | percent bound (D1/D2 and F/E/G added together) [1] | percent bound [2] | percent bound [4] | also measured
1 | B1 | 53.5% | 14.1% | – | stoichiometry N (SEC): 6
2 | B2 | 59% | 19.8% | 100% | percent bound (D1/D2 and F/E/G added together) [3]: 95%
3 | B3 | – | – | 88.9% | –
4 | B4 | – | – | – | binding result [5]: binds; binding result [6]: binds; binding result [7]: binds
5 | B5 | – | – | – | binding result [8]: binds
